The results in this text go back to US20240317834A1, “COMPOSITIONS AND METHODS FOR NEUROLOGICAL DISEASES” (CODA BIOTHERAPEUTICS, INC., priority 2020, published 2024).

In one assay the test system is rat DRG neurons. Description: Rheobase shift and evoked action potentials in rat DRG neurons (current clamp). Format: cell-based. In a few lines:
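Rat DRG neurons expressing engineered receptors, whole-cell current clamp at RT. ECS at pH 7.3; K-gluconate internal at pH 7.2. 500 ms steps from −200 to 700 pA with and without ligand. Rheobase taken as the smallest depolarising step that fires an action potential; input resistance from negative steps.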

For the next assay, the system named is HEK293T cells. Description: High throughput electrophysiology (IonFlux automated patch clamp), EC50 of engineered receptors to ligands. Format: cell-based. The procedure: To confirm the EC50s determined by plate reader as well as develop a better understanding of maximum current flow, the engineered receptors were subjected to high throughput electrophysiology system, as described below. For HEK293T studies, cDNAs encoding ion channels were cloned into pcDNA3.1 using standard recombination techniques. HEK293T cells from Clontech (Lenti-X™ 293T Cell Line) were cultured in DMEM supplemented with 10% FBS and 1% Pen/Strep to 40-50% confluence using standard cell culture protocols, transfected with ion channel plasmids at a concentration of 18 μg per 15 cm dish using Fugene 6, and grown for an additional 24 hours. Cells were then assayed on an electrophysiological system (IonFluxHT and/or Mercury, Fluxion Biosciences) in which dose-response relationships may be assessed through a microfluidics-based platform for establishing whole cell configurations. Ensemble plates were primed with extracellular buffer (140 mM NaCl, 5 mM KCl, 2 mM CaCl2), 1 mM MgCl2, 10 mM HEPES, and 10 mM glucose, pH 7.2 with NaOH, mOsm 310), intracellular buffer (145 mM CsCl, 2 mM CaCl2), 2 mM MgCl2, 10 mM HEPES, and 10 mM EGTA, pH 7.2 with CsOH, mOsm 305), as adapted from Lynagh and Lynch, and test compounds (stocks prepared fresh) diluted in extracellular buffer. Cells were then released from the plate with Accutase, centrifuged, resuspended in extracellular buffer, and loaded into Ensemble plates. Cells were then subjected to a standard protocol for priming, trapping, breaking, and establishing whole cell configuration, with cells held at −60 mV throughout the recording. After recording baseline, progressive doses of test compounds were applied using the IonFlux software to assess dose response relationships. Data were then analyzed off-line using custom Python scripts to convert data to .csv format, re-plot traces, and apply QC measurements to reject unstable recordings (i.e. thresholding based on access resistance and/or standard deviation in baseline, as well as artifact rejection). Peak currents were then calculated, and population data were fit using a 4-parameter logistic equation as described by the Hill Equation. Currents were measured on an automated patch clamp system (Fluxion Biosciences) following 1 second addition of drug and the EC50 values calculated are tabulated below in Table 22 below and Table 21 above (in Example 2).

B1: CODA806: engineered chimeric LGIC receptor, Y115D, L131Q in SEQ ID NO: 33 (protein)
chain: MRCSPGGVWLALAASLLHVSLQGEFQRKLYKELVKNYNPLERPVANDSQPLTVYFSLSLLQIMDVDEKNQVLTTNIWLQMSWTDHYLQWNVSEYPGVKTVRFPDGQIWKPDILLDNSADERFDATFHTNVQVNSSGHCQYLPPGIFKSSCPMDLKNFPMDVQTCKLKFGSWSYGGWSLDLQMQEADISGYIPNGEWDLVGIPGKRSERFYECCKEPYPDVTFTVTMRRRMGYYLIQMYIPSLLIVILSWISFWINMDAAPARVGLGITTVLTMTTQSSGSRASLPKVSYVKAIDIWMAVCLLFVFSALLEYAAVNFVSRQHKELLRFRRKRRHHKSPMLNLFQEDEAGEGRFNFSAYGMGPACLQAKDGISVKGANNSNTTNPPPAPSKSPEEMRKLFIQRAKKIDKISRIGFPMAFLIFNMFYWIIYKIVRREDVHNQ
modifications: synthetic sequence of chimeric LGIC
B1: the “Rheobase Shift; Rat DRG Neurons, Baseline” value with rat DRG neurons (Baseline, no ligand) came out at 163 ± 28 pA. The “Rheobase Shift; Rat DRG Neurons, Facinicline/RG-3487 @ EC90” value in the assay with rat DRG neurons (Facinicline/RG-3487 @ EC90) is 625 ± 35 pA. Moreover, the “effect on current injection evoked action potentials” value with rat DRG neurons (RG-3487 (SA-2) 3 μM, transduced rat DRG neurons) was “reversibly inhibits”. Moreover, the “increase in the current required to elicit action potentials (rheobase)” value in the assay on rat DRG neurons (RG-3487 (SA-2) 3 μM, transduced rat DRG neurons, n=7) was about 3 ×. The “effect on evoked action potentials” value with rat DRG neurons (acetylcholine 3.0 mM, transduced rat DRG neurons, n=4) is recorded as “no effect”. Further, in the assay with HEK293T cells (ligand RG-3487), the “fold increased potency towards RG-3487 compared with wild type receptor” value is reported as “over 10 fold”. The “fold reduced potency to acetylcholine compared with wild type receptor” value in the assay with HEK293T cells (ligand acetylcholine) was “over 500 fold”.
